Data on four molecules can be found in US20210139548A1 (published 2021).

*1 amine or outer side, *2 acyl side, *3 side chain or, on linkers, in order; H or OH if unused. Side-chain parts run from the residue outwards. The star is where a group is joined. C18 diacid = O=C(O)CCCCCCCCCCCCCCCCC(=O)*; γGlu = O=C(O)[C@H](CCC(=O)[*:2])N[*:1]; Isovaleryl = CC(C)CC(=O)*; AEEA = NCCOCCOCC(=O)O

The target in assay [1] is T1, human neuropeptide Y2 receptor (human, UniProt P49146 1-381).
T1 construct: whole, on cells; also called hNPY2 receptor; hNPY2-R
T1 sequence (looked up): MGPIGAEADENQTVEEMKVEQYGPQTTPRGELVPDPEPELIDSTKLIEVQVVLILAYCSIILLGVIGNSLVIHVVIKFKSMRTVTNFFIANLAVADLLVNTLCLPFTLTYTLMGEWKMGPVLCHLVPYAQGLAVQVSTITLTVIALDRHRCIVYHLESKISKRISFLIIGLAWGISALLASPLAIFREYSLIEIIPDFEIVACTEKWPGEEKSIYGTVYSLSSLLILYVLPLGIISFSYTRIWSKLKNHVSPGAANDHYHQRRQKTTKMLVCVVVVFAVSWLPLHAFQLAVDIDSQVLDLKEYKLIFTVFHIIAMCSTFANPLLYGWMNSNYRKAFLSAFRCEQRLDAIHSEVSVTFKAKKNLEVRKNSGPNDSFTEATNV
Description: RLB 6: apparent Ki of filtrate after incubation at pH 6.1-6.2.

For assay [2], the target named is T1, human neuropeptide Y2 receptor. Description: radioligand competition (125I-PYY(1-36)), hY2R membranes; DMSO stock. As for the experimental part:
(§1) The filtration RLB assay was carried out in 96-well plates in a final volume of 100 μl per well. Freeze-dried test peptides were dissolved in 100% dimethyl sulfoxide (DMSO) to stock solutions of 1 mM and serial dilutions were performed in assay buffer (50 mM HEPES, 5 mM MgCl₂, 1 mM CaCl₂, pH 7.4) containing 0.2% ovalbumin. […] Next, 80 μL membranes (HTS066M, ChemiSCREEN™ Human Neuropeptide Y2 Receptor Membrane Preparation, CHEMICON) were added to each well to give a final protein concentration of 0.5 μg/well. The plates were sealed and incubated at room temperature for 2 hours in a plate shaker set at 400 rpm. The incubation was stopped by vacuum filtration onto 0.5% poly-ethylene amine (PEI) presoaked GF/C filters using a 96-well FilterMate™ harvester (Perkin Elmer) followed by four washes with 300 μl/well ice-cold wash buffer (50 mM HEPES, 500 mM NaCl, pH7.4). Filter plates were then dried for 60 min at room temperature and the bottom of the plates was sealed with backing tape UniFilter-96. Finally, 50 μl/well scintillation counter cocktail (Microscint20, Packard) was added and the radioactivity was counted in the Packard TopCount NXT scintillation counter. IC₅₀ values (the half maximal inhibitory concentration of the agonist) were calculated by nonlinear regression analysis of sigmoidal dose-response curves.
(In general: Loss of bound radioactivity is the signal in a displacement assay; it reports binding, not function.)

The target is the same in assay [3]. In words: radioligand competition (125I-PYY(1-36)), hNPY2R membranes. Summed up: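 Commercial human Y2 receptor membranes (0.5 μg protein/well) were incubated with peptide for 2 h at room temperature in 50 mM HEPES, 5 mM MgCl₂, 1 mM CaCl₂, pH 7.4, with 0.2% ovalbumin. Bound radioligand was separated on PEI-soaked GF/C filters and counted by scintillation, and IC₅₀ came from nonlinear sigmoidal regression.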

The target is the same in assay [4]. In words: RLB 7: apparent Ki of filtrate after incubation at pH 7.1-7.2. How it is done: as §1
Peptides (as TFA salts) were weighed out in a filter unit (Mini-UniPrep Syringeless Filter 0.45 μm, Whatman), and 0.1 M sodium diphosphate buffer at pH 6.4 or 7.4, respectively, or 0.2 M TRIS buffer at pH 8.3 was added to achieve 10 mg/ml final concentration. The peptide was (partially) dissolved by shaking the filter unit horizontally at approx. 400 rpm for 2 hours at room temperature. The sample was filtered to remove any insoluble particles.

Assay [5] deals with T2, human NPY5 receptor (human, UniProt Q15761 1-445).
T2 sequence (looked up): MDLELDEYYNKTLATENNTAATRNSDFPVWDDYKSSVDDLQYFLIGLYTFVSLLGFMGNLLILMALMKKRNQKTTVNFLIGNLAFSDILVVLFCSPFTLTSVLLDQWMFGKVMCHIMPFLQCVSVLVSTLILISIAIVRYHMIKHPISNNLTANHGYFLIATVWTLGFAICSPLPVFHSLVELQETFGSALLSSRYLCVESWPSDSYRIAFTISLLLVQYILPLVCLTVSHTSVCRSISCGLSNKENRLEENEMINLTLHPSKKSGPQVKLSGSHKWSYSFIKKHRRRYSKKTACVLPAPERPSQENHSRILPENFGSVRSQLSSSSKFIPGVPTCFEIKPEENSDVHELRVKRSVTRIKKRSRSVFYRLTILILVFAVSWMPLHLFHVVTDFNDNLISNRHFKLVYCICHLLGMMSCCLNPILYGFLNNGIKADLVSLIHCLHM
Description: cell-based or functional assay.

The target of assay [6] is T1, human neuropeptide Y2 receptor. Description: cell-based or functional assay.
Assay [7] deals with T3, human NPY1 receptor (human, UniProt P25929 1-384).
T3 sequence (looked up): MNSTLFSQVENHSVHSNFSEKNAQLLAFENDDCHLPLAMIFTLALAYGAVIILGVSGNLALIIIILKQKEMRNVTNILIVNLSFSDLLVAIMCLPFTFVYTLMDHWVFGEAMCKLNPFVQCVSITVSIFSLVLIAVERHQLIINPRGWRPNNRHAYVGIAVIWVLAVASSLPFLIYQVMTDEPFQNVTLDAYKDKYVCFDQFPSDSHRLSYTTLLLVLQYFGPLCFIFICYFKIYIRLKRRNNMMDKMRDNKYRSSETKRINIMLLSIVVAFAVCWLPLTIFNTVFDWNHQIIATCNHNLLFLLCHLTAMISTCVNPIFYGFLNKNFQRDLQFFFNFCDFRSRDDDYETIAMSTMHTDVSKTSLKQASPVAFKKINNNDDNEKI
Description: cell-based or functional assay.

The target of assay [8] is human NPY4 receptor (human, UniProt P50391 1-375). In words: cell-based or functional assay.
human NPY4 receptor, sequence (P50391 whole entry): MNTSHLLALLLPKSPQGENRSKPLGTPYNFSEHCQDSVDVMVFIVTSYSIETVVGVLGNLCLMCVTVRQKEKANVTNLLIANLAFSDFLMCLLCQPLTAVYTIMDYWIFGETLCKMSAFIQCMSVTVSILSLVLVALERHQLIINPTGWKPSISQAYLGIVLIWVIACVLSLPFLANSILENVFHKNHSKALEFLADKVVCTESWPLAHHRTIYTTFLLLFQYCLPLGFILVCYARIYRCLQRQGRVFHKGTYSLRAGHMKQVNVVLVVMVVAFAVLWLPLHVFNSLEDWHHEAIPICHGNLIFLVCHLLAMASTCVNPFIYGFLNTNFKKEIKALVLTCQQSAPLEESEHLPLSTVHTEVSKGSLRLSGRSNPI

As to Isovaleryl-APEK([AEEA-AEEA-γGlu-C18 diacid])PEEDASPEEIQRYYVSLRHYYNWLTRQRY-NH2 [Compound 84], the Ki came out at 6.6 nM in assay [1], 3.5 nM in assay [2] and 1.19 nM in assay [3].

On to Isovaleryl-APAK([AEEA-AEEA-γGlu-C18 diacid])PEEDASPEELQRYYVSLRHYYNWLTRQRY-NH2 [Compound 203], for which the Ki is 4.6 nM in assay [1], 3 nM in assay [2], 11.1 nM in assay [4] and 0.75 nM in assay [3].

As for Isovaleryl-APEK([AEEA-AEEA-γGlu-C18 diacid])PEEDATPEELQKYYVSLRHYYNWLTRQRY-NH2 [Compound 231], the “EC50 (HTRF cAMP Gi assay)” value in assay [5] is greater than 5000 nM; in assay [6], 0.107 nM; in assay [7] it was greater than 5000 nM; in assay [8], greater than 5000 nM. The molecule also yielded a Ki in assay [3] of 1.96 nM.

B1: Compound 188 (peptide)
peptide: Isovaleryl-APEK([AEEA-AEEA-γGlu-C18 diacid])PEEDAEPEELQRYYVSLRHYYNWLTRQRY-NH2
SMILES: CC(C)CC(=O)N[C@@H](C)C(=O)N1CCC[C@H]1C(=O)N[C@@H](CCC(=O)O)C(=O)N[C@@H](CCCCNC(=O)COCCOCCNC(=O)COCCOCCNC(=O)CC[C@H](NC(=O)CCCCCCCCCCCCCCCCC(=O)O)C(=O)O)C(=O)N1CCC[C@H]1C(=O)N[C@@H](CCC(=O)O)C(=O)N[C@@H](CCC(=O)O)C(=O)N[C@@H](CC(=O)O)C(=O)N[C@@H](C)C(=O)N[C@@H](CCC(=O)O)C(=O)N1CCC[C@H]1C(=O)N[C@@H](CCC(=O)O)C(=O)N[C@@H](CCC(=O)O)C(=O)N[C@@H](CC(C)C)C(=O)N[C@@H](CCC(N)=O)C(=O)N[C@@H](CCCNC(=N)N)C(=O)N[C@@H](Cc1ccc(O)cc1)C(=O)N[C@@H](Cc1ccc(O)cc1)C(=O)N[C@H](C(=O)N[C@@H](CO)C(=O)N[C@@H](CC(C)C)C(=O)N[C@@H](CCCNC(=N)N)C(=O)N[C@@H](Cc1c[nH]cn1)C(=O)N[C@@H](Cc1ccc(O)cc1)C(=O)N[C@@H](Cc1ccc(O)cc1)C(=O)N[C@@H](CC(N)=O)C(=O)N[C@@H](Cc1c[nH]c2ccccc12)C(=O)N[C@@H](CC(C)C)C(=O)N[C@H](C(=O)N[C@@H](CCCNC(=N)N)C(=O)N[C@@H](CCC(N)=O)C(=O)N[C@@H](CCCNC(=N)N)C(=O)N[C@@H](Cc1ccc(O)cc1)C(N)=O)[C@@H](C)O)C(C)C
On to B1, for which the “EC50 (HTRF cAMP Gi assay)” value in assay [5] is greater than 5000 nM; in assay [6], 0.106 nM; in assay [7], greater than 5000 nM; in assay [8] it was greater than 5000 nM. Also, in assay [3], the Ki is 3.09 nM.
